Among the data in publication PMC8577158, “Phylogenetic analysis and in-depth characterization of functionally and structurally diverse CE5 cutinases” (The Journal of Biological Chemistry, 2021) are Km, kcat and kcat/Km values, retold here.

For one series, the target named is T1, FsCut (Fusarium vanettenii, UniProt P00590).
T1 construct: gene CUT1
As to the kind of experiment: pNP release at […] nm, nonlinear Michaelis-Menten fit. Conditions: read-out: FsCut; 50 mM sodium phosphate pH 7, 40 °C.

Series [1] concerns CCCCCCCC(=O)Oc1ccc([N+](=O)[O-])cc1. In words: purified protein. Conditions: 50 mM sodium phosphate pH 7, 40 °C.
In series [2] the test system is CCCCCCCCCCCC(=O)Oc1ccc([N+](=O)[O-])cc1. As to the kind of experiment: purified protein. Conditions: 50 mM sodium phosphate pH 7, 40 °C.
The test system of series [3] is CCCCCCCCCCCCCCCC(=O)Oc1ccc([N+](=O)[O-])cc1. In words: purified protein. Conditions: 50 mM sodium phosphate pH 7, 40 °C.
For series [4], the system named is CCCC(=O)Oc1ccc([N+](=O)[O-])cc1. In words: purified protein. Conditions: 50 mM sodium phosphate pH 7, 40 °C.
Substrate in series [5]: CCCC(=O)Oc1ccc([N+](=O)[O-])cc1
As to the kind of experiment: purified protein. It is filed as biochemical, Cryptococcus sp. S-2. Conditions: 50 mM sodium phosphate pH 7, 40 °C.

Substrate in series [6]: CCCCCCCC(=O)Oc1ccc([N+](=O)[O-])cc1
As to the kind of experiment: purified protein. Conditions: 50 mM sodium phosphate pH 7, 40 °C. It is filed as biochemical, Cryptococcus sp. S-2.

Substrate in series [7]: CCCCCCCCCCCC(=O)Oc1ccc([N+](=O)[O-])cc1
In words: purified protein. It is filed as biochemical, Cryptococcus sp. S-2. Conditions: 50 mM sodium phosphate pH 7, 40 °C.

Substrate in series [8]: CCCCCCCCCCCCCCCC(=O)Oc1ccc([N+](=O)[O-])cc1
As to the kind of experiment: purified protein. It is filed as biochemical, Cryptococcus sp. S-2. Conditions: 50 mM sodium phosphate pH 7, 40 °C.

Substrate in series [9]: CCCC(=O)Oc1ccc([N+](=O)[O-])cc1
In words: purified protein. It is filed as biochemical, Coprinopsis cinerea. Conditions: 50 mM sodium phosphate pH 7, 40 °C.

Substrate in series [10]: CCCCCCCC(=O)Oc1ccc([N+](=O)[O-])cc1
In words: purified protein. It is filed as biochemical, Coprinopsis cinerea. Conditions: 50 mM sodium phosphate pH 7, 40 °C.

Substrate in series [11]: CCCCCCCCCCCC(=O)Oc1ccc([N+](=O)[O-])cc1
As to the kind of experiment: purified protein. It is filed as biochemical, Coprinopsis cinerea. Conditions: 50 mM sodium phosphate pH 7, 40 °C.

Substrate in series [12]: CCCCCCCCCCCCCCCC(=O)Oc1ccc([N+](=O)[O-])cc1
As to the kind of experiment: purified protein. Conditions: 50 mM sodium phosphate pH 7, 40 °C. It is filed as biochemical, Coprinopsis cinerea.

Substrate in series [13]: CCCC(=O)Oc1ccc([N+](=O)[O-])cc1
In words: purified protein. Conditions: 50 mM sodium phosphate pH 7, 40 °C. It is filed as biochemical, Thermothielavioides terrestris.

Substrate in series [14]: CCCCCCCC(=O)Oc1ccc([N+](=O)[O-])cc1
As to the kind of experiment: purified protein. It is filed as biochemical, Thermothielavioides terrestris. Conditions: 50 mM sodium phosphate pH 7, 40 °C.

Substrate in series [15]: CCCCCCCCCCCC(=O)Oc1ccc([N+](=O)[O-])cc1
In words: purified protein. It is filed as biochemical, Thermothielavioides terrestris. Conditions: 50 mM sodium phosphate pH 7, 40 °C.

Substrate in series [16]: CCCCCCCCCCCCCCCC(=O)Oc1ccc([N+](=O)[O-])cc1
As to the kind of experiment: purified protein. It is filed as biochemical, Thermothielavioides terrestris. Conditions: 50 mM sodium phosphate pH 7, 40 °C.

T1 sequence (P00590 32-230): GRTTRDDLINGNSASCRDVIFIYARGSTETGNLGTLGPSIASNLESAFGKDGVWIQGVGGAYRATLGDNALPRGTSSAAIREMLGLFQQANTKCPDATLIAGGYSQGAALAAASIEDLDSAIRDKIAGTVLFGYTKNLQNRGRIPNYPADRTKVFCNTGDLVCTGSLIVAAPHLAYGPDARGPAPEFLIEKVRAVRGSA

For `CCCC(=O)Oc1ccc([N+](=O)[O-])cc1` [pNP-C4], the Km on FsCut stood at 1.67 ± 0.04 mM.
The kcat is the maximal rate divided by the concentration of active sites. The kcat/Km is the turnover number divided by the Michaelis constant. FsCut (Fusarium vanettenii): the values for the Km in [1], in series [2] and in [3] were 0.72 ± 0.01 mM, 0.05 ± 0.01 mM and 0.01 ± 0.00 mM, respectively. Besides, the kcat was determined as 6.69 ± 0.24 s⁻¹ in series [1], 1.22 ± 0.03 s⁻¹ in series [2] and 0.15 s⁻¹ in series [3]. For the same molecule, the figures for the kcat/Km in series [1], in series [2] and in [3] were 9250 ± 260 M⁻¹ s⁻¹, 22800 ± 2090 M⁻¹ s⁻¹ and 10600 ± 1060 M⁻¹ s⁻¹, respectively.
As for PbCut (Pyrenopeziza brassicae), the Km in series [4] amounted to 1.71 ± 0.17 mM; in [1] it was 0.54 ± 0.07 mM; in [2], 0.08 ± 0.01 mM; in series [3], 0.04 ± 0.01 mM. Moreover, the kcat worked out at 6.45 ± 0.52 s⁻¹ in [4], 1.43 ± 0.09 s⁻¹ in series [1], 0.2 s⁻¹ in [2] and 0.08 s⁻¹ in [3]. Besides, the kcat/Km came out at 3790 ± 70 M⁻¹ s⁻¹ in series [4], 2650 ± 190 M⁻¹ s⁻¹ in [1], 2500 ± 180 M⁻¹ s⁻¹ in [2] and 2070 ± 250 M⁻¹ s⁻¹ in [3].

B1: CspCut (Cryptococcus sp. S-2) (protein)
chain: ATSSACPQYVLINTRGTGEPQGQSAGFRTMNSQITAALSGGTIYNTVYTADFSQNSAAGTADIIRRINSGLAANPNVCYILQGYSQGAAATVVALQQLGTSGAAFNAVKGVFLIGNPDHKSGLTCNVDSNGGTTTRNVNGLSVAYQGSVPSGWVSKTLDVCAYGDGVCDTAHGFGINAQHLSYPSDQGVQTMGYKFAVNKLGGSA
In the case of B1, the Km was 5.54 ± 0.50 mM in “purified protein [5]”, 0.05 ± 0.00 mM in the series “purified protein [6]”, 0.05 ± 0.00 mM in the series “purified protein [7]” and 0.05 ± 0.00 mM in the series “purified protein [8]”. Further, the turnover number (kcat) in “purified protein [5]” worked out at 13.5 ± 0.25 s⁻¹; in the series “purified protein [6]” it was 3.81 ± 0.27 s⁻¹; in the series “purified protein [7]” it was 3.49 ± 0.06 s⁻¹; in “purified protein [8]”, 3.38 ± 0.12 s⁻¹. The catalytic efficiency (kcat/Km) in “purified protein [5]” was determined as 2510 ± 270 M⁻¹ s⁻¹; in the series “purified protein [6]” it was 83200 ± 4200 M⁻¹ s⁻¹; in “purified protein [7]”, 65970 ± 600 M⁻¹ s⁻¹; in “purified protein [8]” it was 70700 ± 6470 M⁻¹ s⁻¹.

B2: CcCut (Coprinopsis cinerea) (protein)
chain: QLFCRDVYVFFARGTGEVGTLGTVVGPGLSAAVKLAVRDSVEFEGIDYPALVSGYLAGGDRGGARTMANKVSQTASRCPNAKIFISGYSQGAQVTHLAARQLSAADQARVTGVVTFGDPYRDDALPGGLQSRRKTYCNVGDLICAGLPTLLAPHFTYGSDTPDAARWIAARV
Take B2: the Km in the series “purified protein [9]” was 3.56 ± 0.15 mM; in “purified protein [10]”, 1.67 ± 0.18 mM; in “purified protein [11]”, 2.76 ± 0.05 mM; in “purified protein [12]” it was 2.90 ± 0.20 mM. For the same molecule, the kcat in “purified protein [9]” turned out to be 8.96 ± 0.39 s⁻¹. In addition, in “purified protein [9]”, the kcat/Km came to 2520 M⁻¹ s⁻¹.

B3: TtCut (Thermothielavioides terrestris NRRL 8126) (protein)
chain: APTQPAGEAAVEARQLFSDTANDLENGVSSNCPKVIFICARGSTETGNLGSSVCPEVANGLKNYYPNQLWVQGVGGAYTADLASNALPGGTSTAAMQEAANMFNLAQQKCPNASVAAGGYSQGTAVVAGGIQSLSAAAKDQIKGVVLFGYTQAQQNHDTIPNFPVDKTMIFCAQGDLVCNGTLIVTAAHFSYITNGDASTKGPAWLHEKIGDA
Consider B3, for which the Km was 7.08 ± 0.09 mM in the series “purified protein [13]”, 0.39 ± 0.01 mM in “purified protein [14]”, 0.21 ± 0.00 mM in the series “purified protein [15]” and 0.50 ± 0.09 mM in the series “purified protein [16]”. For the same molecule, the kcat in “purified protein [14]” was determined as 2.3 ± 0.06 s⁻¹. Moreover, the kcat/Km in “purified protein [14]” amounted to 5810 ± 50 M⁻¹ s⁻¹.
